This note sets out measurements from the DeepSol protein solubility set.

The nature of the data set: soluble on expression in E. coli; label from the status in PepcDB or PDB records.
Consider “MSTKPEKPIWMSQEDYDRQYGSITGDESSTVSKKDSKVTANAPGDGNGSLPVLQSSSILTSKVSDLPIEAESGFKIQKRRHERYDQEERLRKQRAQKLREEQLKRHEIEMTANRSINVDQIVREHYNERTIIANRAKRNLSPIIKLRNFNNAIKYMLIDKYTKPGDVVLELGCGKGGDLRKYGAAGISQFIGIDISNASIQEAHKRYRSMRNLDYQVVLITGDCFGESLGVAVEPFPDCRFPCDIVSTQFCLHYAFETEEKARRALLNVAKSLKIGGHFFGTIPDSEFIRYKLNKFPKEVEKPSWGNSIYKVTFENNSYQKNDYEFTSPYGQMYTYWLEDAIDNVPEYVVPFETLRSLADEYGLELVSQMPFNKFFVQEIPKWIERFSPKMREGLQRSDGRYGVEGDEKEAASYFYTMFAFRKVKQYIEPESVKPN”, for which the “soluble on expression in E. coli” value is on record as “soluble”.
In the case of “MAKTLAQGRKPGSGRKPGKGKTLREGRKPGSGRRRRQDTGGKETDGSQQDQESRLISSRDMEAVDALRELTHSPSSHSAHNSSAAPPPHAAAASTSLPPSLDYTHQSF” it was “soluble”.
In the case of “MGSDKIHHHHHHMKAGTQKTLTHSDLVEQGVRFLLASYVDLHGVPKAKAVPISHFDRMMNGSEMFTGAALDGVPQEISDEEVAAHPDMGSAIVLPWSKDIAWLPSDLYTQGEPFNACSRTILKKVRQQAAELGMAMQLGIEAEFFVLKDQEAGGFSPISTRHHLKKPAYDVARLLDNKPWLSELVEAMDSLDWGVYSFDHEDGIGQFEIDFSYFEVLRMADNFTFLRMMANEIARKHGGFASFMPKPYGDRAGSGAHFNISLTDINTGLNLFEPEQDDPRGCGLSTLGYQFIAGVLRHLPAICAVVAPTVNSYKRLVKQGSMSGFTWAPVFCCYGNNNRTNTIRIPLGGKRIEIRAVDSACNPYLGAAMILAAGLEGIRENLDPGDPHLDNMYEKTPEELASLGIRELPKTLEEAIDAFEADPLSRQVFGDQMFSAWTQYKREEWLSYITHVSDWEYDRYLKLF” it was “not soluble”.
For “MGFFDDKQDFLEETFAKYPPEGRRAAIMPLLRRVQQEEGWIRPERIEEIARLVGTTPTEVMGVASFYSYYQFVPTGKYHLQVCATLSCKLAGAEELWDYLTETLGIGPGEVTPDGLFSVQKVECLGSCHTAPVIQVNDEPYVECVTRARLEALLAGLRAGKRLEEIELPGKCGHHVHEVEVLEHHHHHH” the value was “soluble”; for “MGHHHHHHGGHMSLRSYLGSISTSKTEVNSMKMHVLKLLIPTMALLLSACASLPPELGNPDDKSVVTQYSAWLERDPATQSPVRMGGVVANISNQKDRTRVELVNLPIDSAGRPNIHQEPQGRFVAYVPGFLDPITYGEGRLLTLYGTTAPSEQGKVGDYEHTYPVMNAQGYHLWRVEERVEVDDIGPYMFPCRGFYCWPRTMPERDGKIIQEVKEGGS”, “not soluble”.
On to “MAHHHHHHMQRYLMNTSYLQGQLKSLYALHNKTVADYGELVQNLNEECTILCDVVPSYRISSTLENEDGGGQRKQKEVYNVQKLEHEILTQYTHFLQLLRKLSRKSHPEQQALGSRLCARLVKSSAPEFNHADALLSLAIDFANSKSVRVAQPCQTALSELLDDQKVSDTTEHIVGALLRIVRKRSYAMNPKLLNLLLHVRVAMVDVHREDLAEEKAKSKRLKKEDKELARQLQKSKARRDRAEIAAKQTRILHRIFVIYLRVIEASKTCSPVHQTKILAPTLEGLVKFAPLVNLELYQQLMEALKDLVKGGGTSRTRLRVGGTEGGSDGDNVDDKHEEETATSVTTRLHALVAVATLAQRDATATASEWRVDLSYFHEVLFRCLGEALELPSAESSSSAKMTREGEQEASNGDMDEVASQGSTSSAGSLSSQAFSIAQSMTQGTLVHQNASREWTFHVGLVLRAVDLLVLTQKHLPVARVTAILRRLIQATPLCPPHIAMSILALCHRIVLRYPLAGGVIVGGSDNVIAGRGAYNPEALQTASANADSSFTWELSLLSHSYHPTLRQVAETMCKHYHKVSKHQHGQAPIVTKQLDSLGPYEVIEEYDPSLGNLKPAAPLPTALKAEVRKRQREEAQAYEVA”, for which the “soluble on expression in E. coli” value was “not soluble”.
For “MKNEELDFDITVFDEGKADLKAAAIYNVPFFPKGAKADEIYTHIKAQIASMLEVKYIDSKVVSISGEKGDFTVNDEQGLGIKADYIIVATGANKSDIKELEDFVIPHELMPKPNKFCFKHHGRQIIKEGIYAAGLASGVTTMVACAMGSANEAACAILSDIKGAVSVYHDTPLEHHHHHH” the value was “not soluble”.
